Assay results published in patent publication US12295987B2, “Method of using a GIP/GLP1 co-agonist for diabetes” (Eli Lilly and Company, priority 2018, dated 2025).

Biological target: T1, human gastric inhibitory peptide receptor (hGIPR) (Homo sapiens, UniProt P48546)
T1 construct: expressed in transfected cells; host or cells: HEK293
T1 sequence (P48546 22-466): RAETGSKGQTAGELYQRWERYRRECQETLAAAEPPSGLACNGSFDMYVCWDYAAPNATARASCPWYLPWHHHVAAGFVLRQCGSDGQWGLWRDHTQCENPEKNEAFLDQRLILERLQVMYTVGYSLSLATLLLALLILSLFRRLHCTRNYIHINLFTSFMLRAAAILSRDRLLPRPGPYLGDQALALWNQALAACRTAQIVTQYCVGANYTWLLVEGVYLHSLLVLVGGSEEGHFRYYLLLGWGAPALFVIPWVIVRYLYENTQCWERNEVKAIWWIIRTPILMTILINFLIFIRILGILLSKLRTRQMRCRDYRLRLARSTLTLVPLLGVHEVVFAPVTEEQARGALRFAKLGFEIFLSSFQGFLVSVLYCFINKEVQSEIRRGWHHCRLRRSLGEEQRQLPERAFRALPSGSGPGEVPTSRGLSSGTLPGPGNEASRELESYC
Assay: cAMP pharmacological functional assay in presence of 0.1% casein, hGIPR
Assay type: cell-based
Conditions: ratio of hGIPR to hGLP1R cAMP EC50 ratios

## Y-Aib-EGT-αMeF(2F)-TSDHSI-αMeL-LDEK((2-[2-(2-Amino-ethoxy)-ethoxy]-acetyl)2-CO—(CH2)18—CO2H)AQ-Aib-TFI-(D-Glu)-YLIEGGPSSGAPPPS-NH2 (YXEGTXTSDHSIXLDEKAQXTFIXYLIEGGPSSGAPPPS; Aib, αMeF(2F), αMeL, D-Glu; lipidated K; amide; (2)..(2) Xaa at position 2 is Aib; (6)..(6) Xaa at position 6 is alpha-methyl-Phe(2F); (13)..(13) Xaa at position 13 is alpha-methyl-Leu; MOD_RES (17)..(17) Lys at position 17 is chemically modified by conjugation of the epsilon-amino group of the Lys side chain with (2-[2-(2-amino-ethoxy)-ethoxy]-acetyl)2-CO-(CH2)18-CO2H; (20)..(20) Xaa at position 20 is Aib; (24)..(24) Xaa at position 24 is D-Gl) [Peptide 174]
  [hGIPR/hGLP1R] EC50 Ratio: 4.99

## Y-Aib-EGT-αMeF(2F)-TSDLSI-αMeL-LD-Orn-K((2-[2-(2-Amino-ethoxy)-ethoxy]-acetyl)2-(γGlu)-CO—(CH2)16—CO2H)AQ-Aib-AFI-(D-Glu)-αMeY-LIEGGPSSGAPPPS-NH2 (YXEGTXTSDLSIXLDXKAQXAFIXXLIEGGPSSGAPPPS; Aib, Orn, αMe residues, lipidated Lys, D-Glu, amide; (2)..(2) Xaa at position 2 is Aib; (6)..(6) Xaa at position 6 is alpha-methyl-Phe(2F); (13)..(13) Xaa at position 13 is alpha-methyl-Leu; (16)..(16) Xaa at position 16 is Orn; MOD_RES (17)..(17) Lys at position 17 is chemically modified by conjugation of the epsilon-amino group of the Lys side chain with (2-[2-(2-amino-ethoxy)-ethoxy]-acetyl)2-(gamma-Glu)-CO-(CH2)16- CO2H; (20)..(20) Xaa at positi) [Peptide 244]
  [hGIPR/hGLP1R] EC50 Ratio: 6.41

## Y-Aib-EGT-αMeF(2F)-TSDLSI-αMeL-LD-Orn-K((2-[2-(2-Amino-ethoxy)-ethoxy]-acetyl)2-(γGlu)-CO—(CH2)16—CO2H)AQ-Aib-EFI-(D-Glu)-αMeY-LIEGGPSSGAPPPS-NH2 (YXEGTXTSDLSIXLDXKAQXEFIXXLIEGGPSSGAPPPS; Aib, Orn, αMe residues, lipidated Lys, D-Glu, amide; (2)..(2) Xaa at position 2 is Aib; (6)..(6) Xaa at position 6 is alpha-methyl-Phe(2F); (13)..(13) Xaa at position 13 is alpha-methyl-Leu; (16)..(16) Xaa at position 16 is Orn; MOD_RES (17)..(17) Lys at position 17 is chemically modified by conjugation of the epsilon-amino group of the Lys side chain with (2-[2-(2-amino-ethoxy)-ethoxy]-acetyl)2-(gamma-Glu)-CO-(CH2)16- CO2H; (20)..(20) Xaa at positi) [Peptide 238]
  [hGIPR/hGLP1R] EC50 Ratio: 6.37

## Y-Aib-EGT-αMeF(2F)-TSDLSI-αMeL-LD-Orn-K((2-[2-(2-Amino-ethoxy)-ethoxy]-acetyl)2-(γGlu)-CO—(CH2)16—CO2H)AQ-Aib-TFI-(D-Glu)-αMeY-LIEGGPSSGAPPPS-NH2 (YXEGTXTSDLSIXLDXKAQXTFIXXLIEGGPSSGAPPPS; Aib, Orn, αMe residues, lipidated Lys, D-Glu, amide; (2)..(2) Xaa at position 2 is Aib; (6)..(6) Xaa at position 6 is alpha-methyl-Phe(2F); (13)..(13) Xaa at position 13 is alpha-methyl-Leu; (16)..(16) Xaa at position 16 is Orn; MOD_RES (17)..(17) Lys at position 17 is chemically modified by conjugation of the epsilon-amino group of the Lys side chain with (2-[2-(2-amino-ethoxy)-ethoxy]-acetyl)2-(gamma-Glu)-CO-(CH2)16- CO2H; (20)..(20) Xaa at positi) [Peptide 243]
  [hGIPR/hGLP1R] EC50 Ratio: 7.12

## Y-Aib-EGT-αMeF(2F)-TSDLSI-αMeL-LDEK((2-[2-(2-Amino-ethoxy)-ethoxy]-acetyl)2-(γGlu)-CO—(CH2)18—CO2H)AQ-Aib-EFI-(D-Glu)-YLIEGGPSSGAPPPS-NH2 (YXEGTXTSDLSIXLDEKAQXEFIXYLIEGGPSSGAPPPS; Aib, αMeF(2F), αMeL, D-Glu; lipidated K; amide; (2)..(2) Xaa at position 2 is Aib; (6)..(6) Xaa at position 6 is alpha-methyl-Phe(2F); (13)..(13) Xaa at position 13 is alpha-methyl-Leu; MOD_RES (17)..(17) Lys at position 17 is chemically modified by conjugation of the epsilon-amino group of the Lys side chain with (2-[2-(2-amino-ethoxy)-ethoxy]-acetyl)2-(gamma-Glu)-CO-(CH2)18- CO2H; (20)..(20) Xaa at position 20 is Aib; (24)..(24) Xaa at positi) [Peptide 183]
  [hGIPR/hGLP1R] EC50 Ratio: 3.68

## Y-Aib-EGT-αMeF(2F)-TSDQSI-αMeL-LDEK((2-[2-(2-Amino-ethoxy)-ethoxy]-acetyl)2-(γGlu)-CO—(CH2)18—CO2H)AQ-Aib-EFI-(D-Glu)-YLIEGGPSSGAPPPS-NH2 (YXEGTXTSDQSIXLDEKAQXEFIXYLIEGGPSSGAPPPS; Aib, αMeF(2F), αMeL, D-Glu; lipidated K; amide; (2)..(2) Xaa at position 2 is Aib; (6)..(6) Xaa at position 6 is alpha-methyl-Phe(2F); (13)..(13) Xaa at position 13 is alpha-methyl-Leu; MOD_RES (17)..(17) Lys at position 17 is chemically modified by conjugation of the epsilon-amino group of the Lys side chain with (2-[2-(2-amino-ethoxy)-ethoxy]-acetyl)2-(gamma-Glu)-CO-(CH2)18- CO2H; (20)..(20) Xaa at position 20 is Aib; (24)..(24) Xaa at positi) [Peptide 187]
  [hGIPR/hGLP1R] EC50 Ratio: 6.57

## Y-Aib-EGT-αMeF(2F)-TSDVSI-αMeL-LD-Orn-K((2-[2-(2-Amino-ethoxy)-ethoxy]-acetyl)2-(γGlu)-CO—(CH2)16—CO2H)AQ-Aib-AFI-(D-Glu)-αMeY-LIEGGPSSGAPPPS-NH2 (YXEGTXTSDVSIXLDXKAQXAFIXXLIEGGPSSGAPPPS; Aib, Orn, αMe residues, lipidated Lys, D-Glu, amide; (2)..(2) Xaa at position 2 is Aib; (6)..(6) Xaa at position 6 is alpha-methyl-Phe(2F); (13)..(13) Xaa at position 13 is alpha-methyl-Leu; (16)..(16) Xaa at position 16 is Orn; MOD_RES (17)..(17) Lys at position 17 is chemically modified by conjugation of the epsilon-amino group of the Lys side chain with (2-[2-(2-amino-ethoxy)-ethoxy]-acetyl)2-(gamma-Glu)-CO-(CH2)16- CO2H; (20)..(20) Xaa at positi) [Peptide 242]
  [hGIPR/hGLP1R] EC50 Ratio: 2.85

## Y-Aib-EGT-αMeF(2F)-TSDVSI-αMeL-LD-Orn-K((2-[2-(2-Amino-ethoxy)-ethoxy]-acetyl)2-(γGlu)-CO—(CH2)16—CO2H)AQ-Aib-TFI-(D-Glu)-αMeY-LIEGGPSSGAPPPS-NH2 (YXEGTXTSDVSIXLDXKAQXTFIXXLIEGGPSSGAPPPS; Aib, Orn, αMe residues, lipidated Lys, D-Glu, amide; (2)..(2) Xaa at position 2 is Aib; (6)..(6) Xaa at position 6 is alpha-methyl-Phe(2F); (13)..(13) Xaa at position 13 is alpha-methyl-Leu; (16)..(16) Xaa at position 16 is Orn; MOD_RES (17)..(17) Lys at position 17 is chemically modified by conjugation of the epsilon-amino group of the Lys side chain with (2-[2-(2-amino-ethoxy)-ethoxy]-acetyl)2-(gamma-Glu)-CO-(CH2)16- CO2H; (20)..(20) Xaa at positi) [Peptide 241]
  [hGIPR/hGLP1R] EC50 Ratio: 3.77

## Y-Aib-EGT-αMeF(2F)-TSDYSI-Aib-LD-Orn-K((2-[2-(2-Amino-ethoxy)-ethoxy]-acetyl)2-(Glu)-CO—(CH2)16—CO2H)AQ-Aib-EFI-(D-Glu)-YLIEGGPSSGAPPPS-NH2 (YXEGTXTSDYSIXLDXKAQXEFIXYLIEGGPSSGAPPPS; Aib, Orn, αMeF(2F), lipidated Lys, D-Glu, amide; (2)..(2) Xaa at position 2 is Aib; (6)..(6) Xaa at position 6 is alpha-methyl-Phe(2F); (13)..(13) Xaa at position 13 is Aib; (16)..(16) Xaa at position 16 is Orn; MOD_RES (17)..(17) Lys at position 17 is chemically modified by conjugation of the epsilon-amino group of the Lys side chain with (2-[2-(2-amino-ethoxy)-ethoxy]-acetyl)2-(gamma-Glu)-CO-(CH2)16- CO2H; (20)..(20) Xaa at position 20 is Aib;) [Peptide 247]
  [hGIPR/hGLP1R] EC50 Ratio: 4.20
